Source: the DeepSol protein solubility set

Test: soluble on expression in E. coli; label from the status in PepcDB or PDB records

Sequence | soluble on expression in E. coli
HAEVIASGRLEKCVVDGVTEELDCQEKVVVTLTVGNGQSLQTEALEFSLSCLNSPDGRCPCSCSAADPTCACRDLAAPLRVSLTKSPLWASYPLQYLSSFNWKPLEVILRPSNKVCKDGDWEDSPTCGWFSQGGVRVADSQGFCCECSSSQVWDDTFGSSKERTRANLDCDFWSDPLDILIGRKPVSAHCLTFDPQWYSGYELGAASLQFEIAITVEVPTAPSPTTATTSATPRTNNSSSANSTNSTNSPAPQFLSPPAPSTREVLHLGPSVPLASSASRLLSAKLLGDLAMYTQLPAISNQVLMVPQPPAAAAATGSPLDATLATNRSAWMLLDKTMLSMDGLACDKVGTGFSAFRYQPSGCGRAPQACLSGQLKDLWEADLARIADGRVPLYMITRFTGGSDTTLQSFSGGPLSFALPVTSHSQSLVTLSVAADGVRLVTNRSPGKITGAAVCRFAGTSCGGFEAVAARGYIYVNITNTGRLDSDYTLTVSNCSSNVRPIEARTLAVRAGSAASLDPPMELYVEDQAAAAARTCTVSLYDSVGAVTDSLTLSFYTNATQLVVKPSGGYNGTGDGAGVKRNGTDCSTACTNPIDVLCFVTKKCWSKFGR | not soluble
MGSDKIHHHHHHMPQGKANPFNINTSVKNGTVAKVGSISPTSFLNSVDPNATEVDVGGEPFNQKEFLELALNDDFLKGLLLDEEGNIKPEVAGEATIQGLEQWHQNDAGLEVDDTDTLGLMFNYYLNDNVSLQFIGGIPPKVDIKGQGEILAPLSGVALSPNELVKILFPNGITLGQAVPITNLGNKPKAASVRAWTPAIEAQYQFGKSGVNKFRPYLGVGLMYAHFNDIKLNDEIRSDLISAGHMIQNVLDGKAGAALDRKESSGNMVVKVDADDAIAPIFTAGFTYDFNDSWYTVASVSYAKLNNRTQIDVINQNTGARLIHGSTKVDIDPIITYLGVGYRF | not soluble
MEAAASEPSLDLDNLKLLELIGRGRYGAVYKGSLDERPVAVKVFSFANRQNFINEKNIYRVPLMEHDNIARFIVGDERVTADGRMEYLLVMEYYPNGSLCKYLSLHTSDWVSSCRLAHSVTRGLAYLHTELPRGDHYKPAISHRDLNSRNVLVKNDGTCVISDFGLSMRLTGNRLVRPGEEDNAAISEVGTIRYMAPEVLEGAVNLRDCESALKQVDMYALGLIYWEIFMRCTDLFPGESVPEYQMAFQTEVGNHPTFEDMQVLVSREKQRPKFPEAWKENSLAVRSLKETIEDCWDQDAEARLTAQCAEERMAELMMIWERNKSVSPTAHHHHHH | soluble
MPRVKAAQAGRQSSAKRHLAEQFAVGEIITDMAKKEWKVGLPIGQGGFGCIYLADMNSSESVGSDAPCVVKVEPSDNGPLFTELKFYQRAAKPEQIQKWIRTRKLKYLGVPKYWGSGLHDKNGKSYRFMIMDRFGSDLQKIYEANAKRFSRKTVLQLSLRILDILEYIHEHEYVHGDIKASNLLLNYKNPDQVYLVDYGLAYRYCPEGVHKEYKEDPKRCHDGTIEFTSIDAHNGVAPSRRGDLEILGYCMIQWLTGHLPWEDNLKDPKYVRDSKIRYRENIASLMDKCFPEKNKPGEIAKYMETVKLLDYTEKPLYENLRDILLQGLKAIGSKDDGKLDLSVVENGGLKAKTITKKRKKEIEESKEPGVEDTEWSNTQTEEAIQTRSRTRKRVQK | soluble
MAPKRLMVEHALARAKEAAGLADVKKVYTYYGDEACTVFIGRTKQGKAVVVWVPEKKGSVVVKGVDSGISEAEARAILQRDRRPRRIIDATLGMEKGVPLWELTYIDAEGRYSFYYLHFADGAFLKRYSFQQ | not soluble
SPSETLWEIAKAEVEKRGINGSEGDGAEIAEKFVFFIGSKNGGKTTIILRCLDRDEPPKPTLALEYTYGRRAKGHNTPKDIAHFWELGGGTSLLDLISIPITGDTLRTFSLVLVLDLSKPNDLWPTMENLLQATKSHVDKVIMKLGKTNAKAVSEMRQKIWNNMPKDHPQDHELIDPFPVPLVIIGSKYDVFQDFESEKRKVICKTLRFVAHYYGASLMFTSKSEALLLKIRGVINQLAFGIDKSKSICVDQNKPLFITAGLDSFGQIGSPPVPENDIGKLHAHSPMELWKKVYEKLFPPKSINTLKDIKDPARDPQYAENEVDEMRIQKDLELEQYKRSSSKSWKQIELDS | soluble
VKNSNGVREKDGKPFRVELYYAGSDTVRRDIAIEFSSQMKKLGLDFPTIASTWDEIETKLGDVSVVLGGGSAPYDLTIMAYEYLHTRTPSTGKWANPGDYGSEKLNALLDQARSEVDVEKRNNLWRKIQAEYVNNPSALNLVNIDHVYVGKKNDWKKPELLLEPHIHGVTWGPWWRISEWTK | not soluble
